B1: RAB22A (parent)
chain: FVEDSFDPNINPTIGASFMTKTVQ
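Also: lentivirally expressed fusions sorted by FACS into six bins by GFP to DsRed ratio, PSI derived from sequencing read proportions per bin multiplied by bin number.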

The data set covers variants of B1. The experiment in a line: protein stability index of a GFP-peptide fusion (GPS, HEK-293T) (PSI 1-6); higher = more stable. Particulars: c terminus: a fixed tail appended.
Consider FVEDSFDPNINPTIGASFMTKDVQ [T22D], for which the protein stability index turned out to be 2.85.
In the case of FVEDSFDPNINPTIGASFMTKKVQ [T22K] it was 2.77; in that of FVEDSFDPNINPTIGASFMTKYVQ [T22Y], 1.73.
In the case of FVEDSFDPNINPTIGASFMTKAVQ [T22A] it was 2.43; in that of FVEDSFDPNINPTIGASFMTKEVQ [T22E], 2.91.
FVEDSFDPNINPTIGASFMTKFVQ [T22F]: the protein stability index was found to be 2.02.
In the case of FVEDSFDPNINPTIGASFMTKQVQ [T22Q] it was 2.45; in that of FVEDSFDPNINPTIGASFMTKPVQ [T22P], 2.75.
FVEDSFDPNINPTIGASFMTKVVQ [T22V]: the protein stability index amounted to 2.2.
Take FVEDSFDPNINPTIGASFMTKNVQ [T22N]: the protein stability index stood at 2.25.
The same measure for FVEDSFDPNINPTIGASKMTKTVQ [F18K]: 2.79; for FVEDSFDPNINPTIGASQMTKTVQ [F18Q]: 3.52; for FVEDSFDPNINPTIGASWMTKTVQ [F18W]: 2.08.
In the case of FVEDSFDPNINPTIGASPMTKTVQ [F18P] it was 2.98.
FVEDSFDPNINPTIGASGMTKTVQ [F18G]: the protein stability index was found to be 3.35.
In the case of FVEDSFDPNINPTIGASVMTKTVQ [F18V] it was 3.07; in that of FVEDSFDPNINPTIGASEMTKTVQ [F18E], 3.37.
For FVEDSFDPNINPTIGASMMTKTVQ [F18M], the protein stability index was 2.65.
Turning to FVEDSFDPNINPTIGASAMTKTVQ [F18A], the protein stability index worked out at 3.22.
As to FVEDSFDPNINPTIGASLMTKTVQ [F18L], the protein stability index stood at 2.56.
The same measure for FVEDSFDPNINPTIGASIMTKTVQ [F18I]: 3.32.
The same measure for FVEDSFDPNINPTIGASSMTKTVQ [F18S]: 3.29; for FVEDSFDPNINPTIGASHMTKTVQ [F18H]: 3.24; for FVEDSFDPNINPTIGASDMTKTVQ [F18D]: 3.45.
The same measure for FVEDSFDPNINPTIGASRMTKTVQ [F18R]: 2.83; for FVEDSFDPNINPTIGASTMTKTVQ [F18T]: 3.15; for FVEDSFDPNINPTIGASCMTKTVQ [F18C]: 3.17.
Consider FVEDSFDPNINPTIGASNMTKTVQ [F18N], for which the protein stability index turned out to be 3.94.
In the case of FVEDSFDPNINPTIGASYMTKTVQ [F18Y] it was 3.08; in that of FVEDSFDPNINPTIGASFMTKTEQ [V23E], 3.24; in that of FVEDSFDPNINPTIGASFMTKTNQ [V23N], 2.44.
Take FVEDSFDPNINPTIGASFMTKTCQ [V23C]: the protein stability index was 2.37.
The same measure for FVEDSFDPNINPTIGASFMTKTLQ [V23L]: 2.93; for FVEDSFDPNINPTIGASFMTKTDQ [V23D]: 2.76.
The same measure for FVEDSFDPNINPTIGASFMTKTGQ [V23G]: 2.56; for FVEDSFDPNINPTIGASFMTKTRQ [V23R]: 1.89.
For FVEDSFDPNINPTIGASFMTKTIQ [V23I], the protein stability index turned out to be 2.37.
On to FVEDSFDPNINPTIGASFMTKTWQ [V23W], for which the protein stability index is 2.5.
For the variant FVEDSFDPNINPTIGASFMTKTAQ [V23A], the protein stability index turned out to be 2.43.
Consider FVEDSFDPNINPTIGASFMTKTHQ [V23H], for which the protein stability index came out at 2.5.
With FVEDSFDPNINPTIGASFMTKTSQ [V23S], the protein stability index is 2.66.
The same measure for FVEDSFDPNINPTIGASFMTKTMQ [V23M]: 1.98; for FVEDSFDPNINPTIGASFMTKTKQ [V23K]: 2.26.
On to FVEDSFDPNINPTIGASFMTKTFQ [V23F], for which the protein stability index stood at 1.79.
As for FVEDSFDPNINPTIGASFMTKTTQ [V23T], the protein stability index was 2.78.
In the case of FVEDSFDPNINPTIGASFMTKTPQ [V23P] it was 2.94; in that of FVEDSFDPNINPTIGASFMTKTQQ [V23Q], 2.39; in that of FVEDSFDPNINPTIGASFMTKTYQ [V23Y], 2.52.
The same measure for FVEDSFDPNINPTIGASFMTSTVQ [K21S]: 2.11; for FVEDSFDPNINPTIGASFMTGTVQ [K21G]: 2.29.
The same measure for FVEDSFDPNINPTIGASFMTCTVQ [K21C]: 1.56; for FVEDSFDPNINPTIGASFMTNTVQ [K21N]: 2.51; for FVEDSFDPNINPTIGASFMTFTVQ [K21F]: 2.38.
With FVEDSFDPNINPTIGASFMTQTVQ [K21Q], the protein stability index worked out at 2.87.
The same measure for FVEDSFDPNINPTIGASFMTVTVQ [K21V]: 1.89.
The same measure for FVEDSFDPNINPTIGASFMTTTVQ [K21T]: 2.41; for FVEDSFDPNINPTIGASFMTYTVQ [K21Y]: 1.93; for FVEDSFDPNINPTIGASFMTWTVQ [K21W]: 2.44.
In the case of FVEDSFDPNINPTIGASFMTRTVQ [K21R] it was 2.19; in that of FVEDSFDPNINPTIGASFMTITVQ [K21I], 2.18; in that of FVEDSFDPNINPTIGASFMTPTVQ [K21P], 2.74.
Turning to FVEDSFDPNINPTIGASFMTLTVQ [K21L], the protein stability index was 2.24.
Regarding FVEDSFDPNINPTIGASFMTETVQ [K21E], the protein stability index amounted to 2.67.
In the case of FVEDSFDPNINPTIGASFMTMTVQ [K21M] it was 1.94.
For the variant FVEDSFDPNINPTIGASFMTATVQ [K21A], the protein stability index was found to be 2.03.
In the case of FVEDSFDPNINPTIGASFMTHTVQ [K21H] it was 2.08; in that of FVEDSFDPNINPTIGASFMTDTVQ [K21D], 2.87; in that of FVEDSFDPNINPTIGASFETKTVQ [M19E], 3.36.
In the case of FVEDSFDPNINPTIGASFGTKTVQ [M19G] it was 2.4; in that of FVEDSFDPNINPTIGASFCTKTVQ [M19C], 2.66.
In the case of FVEDSFDPNINPTIGASFTTKTVQ [M19T] it was 2.81.
Turning to FVEDSFDPNINPTIGASFDTKTVQ [M19D], the protein stability index was determined as 3.24.
Turning to FVEDSFDPNINPTIGASFKTKTVQ [M19K], the protein stability index was 2.1.
Take FVEDSFDPNINPTIGASFQTKTVQ [M19Q]: the protein stability index was 2.38.
With FVEDSFDPNINPTIGASFITKTVQ [M19I], the protein stability index worked out at 2.25.
In the case of FVEDSFDPNINPTIGASFFTKTVQ [M19F] it was 1.73.
Regarding FVEDSFDPNINPTIGASFRTKTVQ [M19R], the protein stability index came out at 2.46.
As for FVEDSFDPNINPTIGASFATKTVQ [M19A], the protein stability index was 3.11.
In the case of FVEDSFDPNINPTIGASFVTKTVQ [M19V] it was 2.29; in that of FVEDSFDPNINPTIGASFSTKTVQ [M19S], 2.64.
On to FVEDSFDPNINPTIGASFPTKTVQ [M19P], for which the protein stability index came out at 2.62.
For the variant FVEDSFDPNINPTIGASFNTKTVQ [M19N], the protein stability index stood at 2.99.
In the case of FVEDSFDPNINPTIGASFYTKTVQ [M19Y], the protein stability index was determined as 2.08.
In the case of FVEDSFDPNINPTIGASFWTKTVQ [M19W] it was 3.23; in that of FVEDSFDPNINPTIGASFLTKTVQ [M19L], 2.22; in that of FVEDSFDPNINPTIGASFHTKTVQ [M19H], 2.12.
For the variant FVEDSFDPNINPTSGASFMTKTVQ [I14S], the protein stability index was determined as 2.46.
The same measure for FVEDSFDPNINPTQGASFMTKTVQ [I14Q]: 2.78; for FVEDSFDPNINPTWGASFMTKTVQ [I14W]: 2.43.
In the case of FVEDSFDPNINPTTGASFMTKTVQ [I14T] it was 2.78.
Turning to FVEDSFDPNINPTYGASFMTKTVQ [I14Y], the protein stability index came out at 2.23.
In the case of FVEDSFDPNINPTPGASFMTKTVQ [I14P] it was 3.07.
In the case of FVEDSFDPNINPTVGASFMTKTVQ [I14V] it was 2.69.
The same measure for FVEDSFDPNINPTRGASFMTKTVQ [I14R]: 2.14.

(Values after the supplement of paper PMC10567573.)
